Measured values taken from paper PMC12622350.

What follows are sequences tested against T1, NikR (Helicobacter pylori 26695) (UniProt O25896) (assay: EMSA).
T1 sequence: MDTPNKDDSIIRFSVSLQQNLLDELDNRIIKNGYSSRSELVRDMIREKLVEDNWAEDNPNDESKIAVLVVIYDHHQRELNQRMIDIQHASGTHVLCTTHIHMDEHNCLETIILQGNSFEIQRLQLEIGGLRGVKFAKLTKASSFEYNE
With “TAAGCTTTTTTCTTTTTTTTTGATTTAATACTAGGTATAATTTTAATTCCACCTAACAAGGAAAAGCTATGAAAGTAACACAAGGCATTGCTAACGACTTTTTTGCCCTAACAAACACGA (double strand) [Probe-flgR 2]” the binding was “binds”. For “TTGGGTTGATTTAACTCAAGCAAATTTTCTTCAATCCTAACAAATTTGGCTGCAAATTAAAAAATTTAAGCTTTTTTCTTTTTTTTTGATTTAATACTAGGTATAATTTTAATTCCACCT (double strand) [Probe-flgR 1]”, the binding was “binds”. In the case of “TAGCAATGTTTTGATTTACTAAGATTAACAGAAGCGTTCATTAACTAATTATTATTTAAAATGAATTAGTGTTATATCTTTGAAGCGCTATAAAATCGTTATTAGAAGTGCGTTTAATAC (double strand) [OPhp0073]”, the binding is reported as “binds”.
